Read-outs that look alike come from different tables or passages of the source.
How the values were obtained:
Test in all cases: cross-linking
[1] = molecular target: PDI deletion mutant Δ222–302 (S. cerevisiae) (UniProt P17967)
[2] = molecular target: PDI deletion mutant Δ252–277 (S. cerevisiae) (UniProt P17967)
[3] = molecular target: PDI deletion mutant Δ222–302 (S. cerevisiae) (UniProt P17967); remark: listed apart in the source
[4] = molecular target: Protein disulfide isomerase (PDI), wild type, S. cerevisiae (S. cerevisiae) (UniProt P17967)
[5] = molecular target: BiP, heavy chain binding protein (S. cerevisiae (endogenous in yeast microsomes)) (UniProt P16474)
BiP, heavy chain binding protein (S. cerevisiae (endogenous in yeast microsomes)), sequence (P16474 43-682): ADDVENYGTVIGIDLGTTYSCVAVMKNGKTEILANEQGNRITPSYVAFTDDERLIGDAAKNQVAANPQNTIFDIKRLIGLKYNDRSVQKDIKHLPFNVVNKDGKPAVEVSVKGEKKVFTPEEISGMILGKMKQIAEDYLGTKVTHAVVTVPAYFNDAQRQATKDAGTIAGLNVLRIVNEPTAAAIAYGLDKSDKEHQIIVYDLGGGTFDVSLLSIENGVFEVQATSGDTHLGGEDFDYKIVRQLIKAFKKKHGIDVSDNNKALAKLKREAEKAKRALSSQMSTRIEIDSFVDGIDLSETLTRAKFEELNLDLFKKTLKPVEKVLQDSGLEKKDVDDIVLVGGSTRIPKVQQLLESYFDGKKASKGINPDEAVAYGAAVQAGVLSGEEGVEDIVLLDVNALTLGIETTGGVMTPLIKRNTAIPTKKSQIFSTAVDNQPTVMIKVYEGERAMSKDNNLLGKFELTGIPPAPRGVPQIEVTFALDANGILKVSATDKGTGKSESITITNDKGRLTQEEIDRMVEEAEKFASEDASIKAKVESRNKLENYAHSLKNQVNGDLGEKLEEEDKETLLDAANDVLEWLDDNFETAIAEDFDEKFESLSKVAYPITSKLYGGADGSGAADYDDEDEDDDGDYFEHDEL

N-benzoyl-NYT-amide, synthetic glycosylation acceptor peptide
peptide binding, percent of wild-type (% of wild-type) [1]: 13
peptide binding, percent of wild-type (% of wild-type) [2]: 38
peptide binding, percent of wild-type (% of wild-type) [3]: 14

gpαf, glycopro-α factor (wild type) (natural protein)
fold lower intensity of the cross-linking product than that with Δgpαf [4]: 8 fold

Δgpαf, mutant glycosylation site-free pro-α factor (natural protein)
fold lower affinity than wild-type PDI [2]: 9 fold
intensity of the cross-linking product, percent of wild-type (% of wild-type) [2]: 24
fold lower affinity than wild-type PDI [3]: 5 fold
intensity of the cross-linking product, percent of wild-type (% of wild-type) [3]: 43
percent of the Δgpαf in the sample cross-linked to PDI [4]: 7%
stoichiometry N [4]: 1
percent of the Δgpαf in the sample cross-linked to BiP [5]: 10%
Δgpαf bound to BiP in sec61-32 microsomes relative to wild-type microsomes [5]: 2.1 fold
Δgpαf bound to BiP in sec61-41 microsomes relative to wild-type microsomes [5]: 1.3 fold

From article PMC2174254
